For this series the following is noted: pH 7, CD, sodium phosphate 10 mM, reversible: Yes, whole UniProt chain shown; for denaturant m value / unfolding free energy: 25 °C; for Tm / unfolding enthalpy (van 't Hoff): Thermal.
[1] abbreviates: Geobacillus stearothermophilus, GdnHCl.
Setting [2] is: Geobacillus stearothermophilus, Urea.
[3] abbreviates: Streptococcus thermophilus, GdnHCl.
The mark [4] stands for this setting: Streptococcus thermophilus, Urea.
Setting [5] is: Bacillus subtilis (strain 168), GdnHCl.
Where [6] appears, read: Bacillus subtilis (strain 168), Urea.
The mark [7] stands for this setting: Halalkalibacterium halodurans (strain ATCC BAA-125 / DSM 18197 / FERM 7344 / JCM 9153 / C-125), GdnHCl.
Where [8] appears, read: Halalkalibacterium halodurans (strain ATCC BAA-125 / DSM 18197 / FERM 7344 / JCM 9153 / C-125), Urea.
Where [9] appears, read: Halalkalibacterium halodurans (strain ATCC BAA-125 / DSM 18197 / FERM 7344 / JCM 9153 / C-125).
Setting [10] is: Oceanobacillus iheyensis (strain DSM 14371 / CIP 107618 / JCM 11309 / KCTC 3954 / HTE831), GdnHCl.
Setting [11] is: Oceanobacillus iheyensis (strain DSM 14371 / CIP 107618 / JCM 11309 / KCTC 3954 / HTE831), Urea.
Where [12] appears, read: Oceanobacillus iheyensis (strain DSM 14371 / CIP 107618 / JCM 11309 / KCTC 3954 / HTE831).

B1: Phosphocarrier protein HPr wild type, P42013 (protein)
chain: MAEKTFKVVSDSGIHARPATILVQTASKFNSEIQLEYNGKTVNLKSIMGVMSLGIPKGATIKITAEGADAAEAMAALTDTLAKEGLAE
As usually defined, the Tm is the temperature at the midpoint of the melting transition. As to B1, under setting [1], the denaturant m value came to 2.43 kcal/mol/M and the unfolding free energy was 6.7 kcal/mol. In addition, under setting [2], the denaturant m value turned out to be 0.98 kcal/mol/M and the unfolding free energy was 8.2 kcal/mol. For the setting “Geobacillus stearothermophilus”, the Tm was 88.3 °C and the “unfolding enthalpy (van 't Hoff)” value came to 99 kcal/mol.

B2: Phosphocarrier protein HPr wild type, Q8VP89 (protein)
chain: MASKDFHIVAETGIHARPATLLVQTASKFASDITLEYKGKAVNLKSIMGVMSLGVGQGADVTISAEGPDADDAIAAIAETMTKEGLA
Turning to B2, under setting [3], the denaturant m value was 2.75 kcal/mol/M and the unfolding free energy is 5.4 kcal/mol. In addition, under setting [4], the denaturant m value turned out to be 0.86 kcal/mol/M and the unfolding free energy came out at 6.3 kcal/mol.

B3: Phosphocarrier protein HPr wild type, P08877 (protein)
chain: MAQKTFKVTADSGIHARPATVLVQTASKYDADVNLEYNGKTVNLKSIMGVMSLGIAKGAEITISASGADENDALNALEETMKSEGLGE
Turning to B3, under setting [5], the denaturant m value was 3.28 kcal/mol/M and the unfolding free energy was 3.4 kcal/mol. Besides, under setting [6], the denaturant m value stood at 1.08 kcal/mol/M and the unfolding free energy is 5 kcal/mol. Moreover, under “Bacillus subtilis (strain 168)”, the Tm stood at 73 °C and the “unfolding enthalpy (van 't Hoff)” value came out at 77 kcal/mol.

B4: Phosphocarrier protein HPr wild type, Q9K8D2 (protein)
chain: MAEKTFTITAETGIHARPATQLVNKAGQYSSEITLEYKGKAVNLKSIMGVMSLGVGKGAQVTIKAEGSDEAEALKGIEEVIKEGLGE
Take B4: under setting [7], the denaturant m value came to 2.36 kcal/mol/M and the unfolding free energy was 5.3 kcal/mol. Under setting [8], the denaturant m value stood at 0.9 kcal/mol/M and the unfolding free energy was found to be 6.8 kcal/mol. Under setting [9], the Tm stood at 82.3 °C and the “unfolding enthalpy (van 't Hoff)” value amounted to 87 kcal/mol.

B5: Phosphocarrier protein HPr wild type, Q8ENY1 (protein)
chain: MKSQTFTITAETGVHARPATLLVNKAGQFDSEIEVSYKGKQVNLKSIMGVMSLGIPKGAEIEVSADGKDEEDALNGVAEVIKEHLGE
B5: under setting [10], the denaturant m value came out at 2.56 kcal/mol/M and the unfolding free energy amounted to 1.4 kcal/mol. Further, under setting [11], the denaturant m value came out at 1.27 kcal/mol/M and the unfolding free energy worked out at 3.4 kcal/mol. In addition, under setting [12], the Tm stood at 58 °C and the “unfolding enthalpy (van 't Hoff)” value worked out at 59 kcal/mol.

Source of the values: FireProtDB (doi:10.1021/bi060038+).
